Results on 69 sequences are retold here after the domain aggregation screens of Martell et al. (2025).

A value given as a limit tells only on which side of the number the result lay.

This data set in a line: soluble fraction after stress (log2 fold change); higher = more stays soluble; pooled small domains, quantitative proteomics. As to conditions: stress: pH 4. The method, boiled down:
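Pooled custom libraries of small protein domains were stressed at pH 4 and then measured by high-throughput quantitative proteomics. The fold change in the amount of each domain that stays soluble after the acid stress serves as a measure of aggregation propensity. Fold changes are given on a log2 scale, and higher values mean more of the domain stayed soluble.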
As to “HMNQDMINFDKLSVRLKNVLIENNLKTVDSLLNYPAEEFEYLTNLGEKTLQELLTYRNELAASNNIQ”, the “soluble fraction (log2)” value was -1.17.
To “HMNQGKLIEMLQEMKEIAHSQNNYLTKNEIANYLGDTVLSKEQLQAVYHYLGENHIEVEGYVYIP” belongs -0.51; to “HMNQIATSTQAIITTLSFLNTSSIFKLPVGDTASRPTGVSPGTLRFNSQEDSAEIYKADDGTGSAGWTEVA”, -1.3; to “HMNQIDEATAATITTLNFLNTNSEFKIPVGDTATRPGTPAIGMMRFNSENDKAEIYVADFDGDGNPGWINL”, -1.52.
To “HMNQILDFTREVKNLPEQDKIKIVEALWSIIYSNKDADIYETNLMRRLAGLLYIDNKTMGDIKEKIKQNL” belongs -0.421; to “HMNQNHFLDSVVEFAKDEASRAFFQKAVKKLGEGLVEEAMGEVKMREADGSVNSRAPYFIALLENWMENR”, -0.128.
In the case of “HMNQNIYVPKLEGLQIEEASSILKSKGLNIEITDSIFRKDAVPGAIIEQTPKPNSRVKTGRNIYVSIYSK”, the “soluble fraction (log2)” value is -0.199.
To “HMNQSEMIGSRLKEERLQQKLTLKQLSEKVGLSIGYLSQVERGYGTLSLSALKKLSSALGLEMSTFFD” belongs 0.121.
Turning to “HMNQTGQYENAAKRFNQLITIDSSDKRAYLQLGISNYNLGNKEKADSLFNIIRNSKDKLLIEELDNFLT”, the “soluble fraction (log2)” value is -0.169.
Turning to “HMNQYALTDREKNVLGLLVDGLSYKMIADKENISFHTVNAHVRKIYEKLHVHSLAEAVSKALKENL”, the “soluble fraction (log2)” value is 0.056.
As to “HMNQYRKLDGDVQNQIIYILSEYPKLPATIVYQRLLDTNTIVKKDVSLSTVNRFVQKYKDSKGIT”, the “soluble fraction (log2)” value amounted to 0.0672.
On to “HMNREDYIKAIFKIAEREGEASNQRIADSLGVSRASASEMVKKLIQEGFVVAEGRQLSLSAEGERIA”, for which the “soluble fraction (log2)” value is -0.32.
As to “HMNREEKKALTRRQIIDVATRLFRQHGIHNTDLKTIATEAGVSVVTFYKYFDSKEALIGTIAAEQ”, the “soluble fraction (log2)” value was -0.23.
In the case of “HMNRNHVFDSNGPDLRLRGTAQQLFEKYLQLGRDATSGGDRVMAEGYFQHAEHYFRILNAMNQAAMQH”, the “soluble fraction (log2)” value was -0.0835.
Turning to “HMNRPYETLFTGLTTDEASAIVGKLEEYGAADYKIEGDTIKVPAAQEPDLKAKLLLDGYPKS”, the “soluble fraction (log2)” value came to 0.0842.
With “HMNRTEYMAALRRALSVLPEEERASALRYYEEYFDDAGPENEEKVIADLGAPEKVAGQILADYRE”, the “soluble fraction (log2)” value is -0.462.
With “HMNSDQMKEHLDNLVDMAKKNDNTLIDTEIVNYFVGKPDIELNTDMMTKIFDYLDEHHVAVLS”, the “soluble fraction (log2)” value was -1.85.
Turning to “HMNSEFPFNGGRIVDNVPANRLQIFFDEKPDADVRTRLKQNGFRWAPNSGAWQSYRHGYTLDWARREFNA”, the “soluble fraction (log2)” value was -0.197.
Turning to “HMNSEPKTKLQEIAQERGLAAPVYETTHTGPDHDRIFSASVTVGDVVAAGEARSRKGAESEAAIAAIKALG”, the “soluble fraction (log2)” value came to 0.155.
As to “HMNSFGWESLIDKEGIADTDLHPSGWVRIDDRRIFVVSEGDFIDKGSGVTVLSVDGNRVVVRELI”, the “soluble fraction (log2)” value was -1.03.
As for “HMNSHLEEGRHGLQIGDPGIVRARIESDPEGETDMPVVVIDGRNISWNEFGRMVATYTGFQFKLEM”, the “soluble fraction (log2)” value is -0.58.
For the sequence “HMNSHQNELDNALTEAHTASRRLLEGTDEYLDLSSQPAYIRRLQHLLAQKYNLGSLSSGVEPNRHIRLLQ”, the “soluble fraction (log2)” value is -0.174.
For the sequence “HMNSIDIENELVKIIEKNGQPMSFDDLVFKLDSLYSTRYKFAKGYIRTIILNSNRIASIGKTSTYSLYKWN”, the “soluble fraction (log2)” value is -0.31.
In the case of “HMNSKKETLLSYLYNHSTWSSRNDLSNFLNVSTRQVTNYINEINKNETIVLSSNKGYKINPKFIGKN”, the “soluble fraction (log2)” value is 0.22.
To “HMNSKMTYSDLIGNIEQGNVSSVELASDGKSATVTLTDNSQKQVNIPSLDSFVTYVQDHIKAGTLSVEE” belongs 0.109; to “HMNSKSDDELLSKTTSLLIHAAKIDENYTDKEKEIIKKTLIQLGVKESKADQIMLTAEINEE”, -0.36; to “HMNSKYILLQVSDIPKTSLVLERQFGVTEYSVQDEHTLRIYDTSLDMAAVNKALVVQDIAVISSQL”, -1.3.
For the sequence “HMNSLFPLSLKYLREQANITQAELAQKLDVTQQAVGRWERGQTSPDYETLKRLSVLFNVSVDYLLGV”, the “soluble fraction (log2)” value is -0.359.
On to “HMNSNIIKTINDELSIRKGKYGPYIMYKTKKMKRPKFKSIGDNTPDEFLADKGSISEIILWIN”, for which the “soluble fraction (log2)” value is -0.452.
With “HMNSSHRLIGLDPGLRVTGWGIVDAIGTKLVHVANGSVKSQQNAPLATRLLELENGLEEVFDNWQPDFA”, the “soluble fraction (log2)” value is -0.0459.
For the sequence “HMNSVLPQEVKSSLNDFFTKYAPGSIAQKLINHASFTGGKVVVTGVELTQTQADDLKKAFKDKFF”, the “soluble fraction (log2)” value is 0.22.
As for “HMNSVTLEHIVYDFRVFNMLKGSGINDIDELIKAAEDGRLFKIIGSNLTYKRIKKSAAEFGVILPDKPG”, the “soluble fraction (log2)” value is -0.45.
In the case of “HMNSVYTPDPKELAKAIKIVTAAREAEQKGQGVIAVDGRMVDAPVVSQALRILELARLAGMEVSE”, the “soluble fraction (log2)” value stood at 0.22.
Then “HMNTAIPIAIDQLRIGMYIQLGLNWMSHPFPVSSFRIASESQIEILRGLGLAEVRYVPAKSDPVP”, with -0.911.
For the sequence “HMNTDEYEQKRGEILDAAQRLIYTKGYERMSIQDILDELKISKGAFYHYFDSKQSLLEALTARMMTE”, the “soluble fraction (log2)” value is -0.408.
To “HMNTDIHRLLDEAFVRVDMTPDAQHLKEEIRANLVARVDELEASGVPSADAARRAIAELGDVRELL” belongs -0.671; to “HMNTFDLSKLEEIILASRDKAMKTKEFTELDNLKNLFITAGLDVQMSKNGIKLIKGPKFNSSLLEDF”, -0.741; to “HMNTIIIDILPKGLSIAGNQTEPKSLIQQLLMARRADPAQPILLRPAIAVPVQNVVELIDRLTAAGI”, -0.412.
As to “HMNTISEADAKRIALERAGLTAADYVKVDYDQDDNEYEVEMRSGNTEYEVKISGSTGAVLEYDSETD”, the “soluble fraction (log2)” value was -0.0384.
As to “HMNTISTLEITTKKDIRILDESELLKSKSSKNNIFNYLLASGDFNLLKDKLNEIDEFSDEIISYQLN”, the “soluble fraction (log2)” value is -0.356.
With “HMNTKQRTAVMRILKQSSDPVSADDVFAALKDEYPSLALSTVYRNLERFADESMVKKDVWSDGIVRYSLAD”, the “soluble fraction (log2)” value is -0.471.
“HMNTLGTNIAKLRESQKLTQEELGKLSGVSRVSIYKIETGQSTPRDTTLQNIAEALHTTPSALRS”: the “soluble fraction (log2)” value amounted to 0.22.
For the sequence “HMNTLLYAPKVSPNPFTPNADGINDVVNISYKLLRVISAVPISVEVFDLSGRLIKTLYSGVDPLGEY”, the “soluble fraction (log2)” value came out at 0.425.
To “HMNTLPASVQPKKGRLYAVIQTKENGKSKPVWRSLGLPEGSNKSKVNKAFREVVKQFEEEYAERLAR” belongs 0.22; to “HMNTLPTDELMKYGIINEDLSFSKKLNADDIQKFLQGYTIVADNDKNRATFQLTENNTKLKVIFLER”, -1.69.
Then “HMNTLRFPEGTPEKDRMSIILASYNSGIGHVNDARRLARLNGEDPNSWEVVARYLQLKAQPEYYESEAVK”, with -0.548; and “HMNTPAENFDKAVEKYKSTNSATEKDAAFKVIEDEWIKLSDEEKKERQDEYDSIFESEGDRV”, with 0.22; and “HMNTQGWEIFEGRITTADTDLNPSGWIRIDGQRIFVISDAGFIDKGKEVSILSVDGNRVLVRK”, with -0.632.
As for “HMNTSMIEHMDKSTFIRFVFTNPVTHDQAVAKLMEKHMWFSTEEKAEAEIDKLLNKTNSLIESGGKLTW”, the “soluble fraction (log2)” value is 0.22.
Take “HMNTTLQLDTILRLEKNAHLLENFVRAGFTDSELGKLTDADLLQIGVPKIGDRRRLLAALAERAH”: the “soluble fraction (log2)” value was -0.29.
Regarding “HMNTVSPAVSAQLRQELGGELNNANFQQLQQYLQAGQRDEAIVYLTSLGIESPRAVSIVNNAMDQIG”, the “soluble fraction (log2)” value turned out to be 0.00938.
Consider “HMNVDIVEITKNSSPNQISKVIDIGAIQIVEDLMSFGIMKAIDTPLEDSEIEQLLEKYNLIVDLIE”, for which the “soluble fraction (log2)” value is -2.19.
“HMNVDSIPGKSGIVTQGIDNLKAMGRVTVNGMEWTARSKDGSLIEEGKVVRVYGVEGVKLIVEED”: the “soluble fraction (log2)” value was -0.72.
As to “HMNVDSLPGEKAVVIKTIDNLRGTGQAVVNGLEWSAKSKDETIIDEGKVVRIVAVEGVKLVVEEE”, the “soluble fraction (log2)” value was -0.252.
For “HMNVEALIGREGRVTDKIEANGYGRVKVDGDSWKAKSANGAEIRQNTDVRILSIDSVIITVEP”, the “soluble fraction (log2)” value turned out to be 0.22.
Regarding “HMNVESLVGKQVIVSETIDNLKATGQVKVNGLEWTARAADETDIIPQGTEVTINEVSGVKLIVSR”, the “soluble fraction (log2)” value is 0.0287.
Turning to “HMNVESMVGKQGKVVVEIDNISAKGMIKVDGMEWTARSVDGEIIPKDSLVAVVSVEGVKAMVRKAE”, the “soluble fraction (log2)” value came out at 0.15.
To “HMNVGKRLKSLREKYKFSLEEVAKKIKSSAGAISRYENNERKINSESLIRLSNLYNVSPEYILYG” belongs 0.391; to “HMNVKQALLELMQRKPELTGSAIARAIGYSPAVISQYLKDGYPGDVVKLTTLIGDFIRRIDEKERS”, -0.48; to “HMNVKVYATIDGDNFKVSGLKPGSNVRVYSSNGSAVFEKKAGDSEMIIPAGAWTKGIYVISADDQSIKVT”, -0.0844.
On to “HMNVLGQTAIVRSLRLDATFGEVLLADGGAGLIFKARTHGDETFKKGDRVVLLEYLKDQHAYRVISETDFL”, for which the “soluble fraction (log2)” value is -1.18.
“HMNVLLGISELSHATGVTPAQLRYWVSQGYIKNYGSNKKNKFSLETVFMVRSIKIFQNQGYTLSASAKRAA”: the “soluble fraction (log2)” value is -0.285.
As for “HMNVNFVQANLANLPNIQAIYQKGNEMLNDMKRGEAREIDEAYSRVDNGVGTEKDFKVLLSFRDKIIAAMQ”, the “soluble fraction (log2)” value was at least 0.43.
Regarding “HMNVNSMIGKEGRVIEDIDNFNETGRIIVDGMEWTARAVNEQSITSGQKVVIREIQGVKAMVVPM”, the “soluble fraction (log2)” value was -0.299.
To “HMNVNTNTILKSLMETYPDSTVFKKAEIVSIANSLGFKKSDYSPLTSTDNRTDVRGQYDLSAVIIPMRESN” belongs -0.11; to “HMNVPYEMVTQNGEVFYKYKVQPGEGVFAVSRTFSVSVAEILRVNPEANKGLKNGQVLLIPVPKDMIA”, -0.147.
For the sequence “HMNVVGAKGRIIKISSSEEKMAVAEIEGHGEWNIRTNSEIELFVGKSVEVIEMKGNYLLVNQI”, the “soluble fraction (log2)” value was -1.81.
As for “HMNVWESVDLRQEQHEAKRRLILKQAALLFADRGFHETTIDQIAEALNVTKPTIYYYIESKEDLLYQVA”, the “soluble fraction (log2)” value is -0.369.
Regarding “HMNWQLITDPKELRELVQKTIADNEAGTSRLREGDMGPLEFLTGIIMKKTRGLADPTMVKALLKEELNI”, the “soluble fraction (log2)” value was found to be 0.0177.
